Source: article PMC5509742, “Structure of polyhydroxyalkanoate (PHA) synthase PhaC from Chromobacterium sp. USM2, producing biodegradable plastics” (Scientific Reports, 2017)

Experiments:
[1] = molecular target: the molecule itself; experiment: AUC; sedimentation velocity, 20 °C, 20,000 rpm, 5 µM full-length PhaCCs with 50 µM DL-3HB-CoA (10-fold molar ratio), 10 mM Tris-HCl (pH 8.0), 100 mM NaCl, 3 mM β-ME
[2] = molecular target: the molecule itself; experiment: AUC; sedimentation velocity, 20 °C, 20,000 rpm, 5 µM full-length PhaCCs without substrate, 10 mM Tris-HCl (pH 8.0), 100 mM NaCl, 3 mM β-ME; monomer to dimer
[3] = molecular target: the molecule itself; experiment: AUC; sedimentation velocity, 20 °C, 20 µM PhaCCs-CAT without DL-3HB-CoA, 10 mM Tris-HCl (pH 8.0), 100 mM NaCl, 3 mM β-ME; monomer to dimer

Protein	stoichiometry N [1]	stoichiometry N [2]	stoichiometry N [3]
PHA synthase PhaC from Chromobacterium sp. USM2, full-length (enzyme, two additional vector-derived residues (Gly-Pro) identified at the N-terminus after PreScission cleavage; Class I PHA synthase PhaC, Chromobacterium sp; USM2; full-length gene of 1704 nucleotides, calc; 63.4 kDa; Cloned into the His-fusion vector pET47b(+); the His-tag was removed with PreScission protease; also called PhaCCs; full-length PhaCCs; source: E. coli Rosetta 2 (DE3), purified (Ni-NTA, …)) not shown	~4	2	–
catalytic domain of PhaC from Chromobacterium sp. USM2 (residues 175-567) (domain or fragment, two additional vector-derived residues (Gly-Pro) identified at the N-terminus after PreScission cleavage; Class I PHA synthase PhaC, Chromobacterium sp; USM2, C-terminal catalytic (CAT) domain, residues 175-567 (1179 nucleotides, calc. 43.8 kDa); Cloned into the His-fusion vector pET47b(+); the His-tag was removed with PreScission protease; also called PhaCCs-CAT; mol A; source: E. coli Rosetta 2 …) not shown	–	–	2
